Reference: the Human Domainome abundance scans (Beltran et al. 2025)
± gives the uncertainty stated by the source.

B1: SWI/SNF-related matrix-associated actin-dependent regulator of chromatin subfamily B member 1, residues 181 to 248; numbered along this chain, Q12824 (parent)
chain: SQPEVLVPIRLDMEIDGQKLRDAFTWNMNEKLMTPEMFSEILCDDLDLNPLTFVPAIASAIRQQIESY

Variants of: B1
Test: abundance fitness (aPCA) (normalised: wild type 0, dead -1); higher = more abundant; growth selection in yeast, the domain comes from the species named
Settings: Homo sapiens

Variant	abundance fitness
G17A	-0.867 ± 0.13
G17E	-0.931 ± 0.18
G17M	-1.07 ± 0.27
G17V	-1 ± 0.13
G17W	-0.897 ± 0.14
G17N	-0.714 ± 0.49
G17K	-0.365 ± 0.099
G17T	-0.896 ± 0.24
G17H	-0.66 ± 0.23
G17C	-0.545 ± 0.12
G17S	-0.769 ± 0.13
G17R	-0.713 ± 0.071
G17P	-0.927 ± 0.29
G17D	-0.745 ± 0.18
I15E	-0.765 ± 0.18
I15V	-0.516 ± 0.088
I15F	-0.282 ± 0.19
I15H	-0.625 ± 0.28
I15L	0.01 ± 0.12
I15G	-0.97 ± 0.25
I15S	-0.934 ± 0.47
I15K	-0.982 ± 0.47
I15Y	0.116 ± 0.15
I15M	-0.667 ± 0.24

Variant	abundance fitness
I15A	-0.917 ± 0.23
I15R	-0.722 ± 0.12
I15C	-0.702 ± 0.19
W26C	-0.673 ± 0.42
W26Q	-0.879 ± 0.29
W26A	-1 ± 0.28
W26T	-0.854 ± 0.26
W26E	-0.628 ± 0.33
W26M	-0.566 ± 0.33
W26R	-0.498 ± 0.18
K19A	-0.32 ± 0.17
K19W	-0.7 ± 0.5
K19C	0.128 ± 0.11
R10P	-0.386 ± 0.27
R10V	-0.024 ± 0.079
R10W	-0.196 ± 0.1
R10N	-0.03 ± 0.31
R10Y	0.138 ± 0.29
R10S	-0.444 ± 0.18
R10T	0.135 ± 0.055
R10L	-0.193 ± 0.11
R10M	-0.273 ± 0.28
R10Q	0.076 ± 0.083
R10E	0.065 ± 0.13

Variant	abundance fitness
K31C	-0.391 ± 0.095
K31T	0.084 ± 0.096
K31F	-0.397 ± 0.42
K31Q	-0.085 ± 0.07
K31W	-0.533 ± 0.1
K31D	0.018 ± 0.17
K31V	-0.146 ± 0.061
K31S	-0.063 ± 0.065
K31A	0.031 ± 0.077
K31R	-0.113 ± 0.043
K31H	-0.169 ± 0.078
T34E	-0.388 ± 0.49
T34R	-0.876 ± 0.17
T34Q	-0.881 ± 0.39
T34V	-0.35 ± 0.15
T34C	-0.831 ± 0.23
T34P	-0.454 ± 0.38
T34W	-0.615 ± 0.41
T34G	-0.686 ± 0.25
T34S	-0.205 ± 0.073
T34I	-0.848 ± 0.39
D12G	-0.264 ± 0.5
D12F	-0.73 ± 0.24
D12S	-0.474 ± 0.21

Variant	abundance fitness
D12E	-0.078 ± 0.15
D12V	-0.646 ± 0.41
D22Q	0.052 ± 0.24
D22M	-0.277 ± 0.4
D22W	0.293 ± 0.3
D22C	0.035 ± 0.096
D22S	-0.21 ± 0.25
D22V	-0.037 ± 0.16
D22H	0.385 ± 0.15
D22R	0.284 ± 0.15
D22N	0.005 ± 0.25
D22L	0.001 ± 0.12
D22T	0.28 ± 0.077
D22G	-0.418 ± 0.28
L11F	-0.215 ± 0.18
L11A	-0.792 ± 0.38
L11C	-0.848 ± 0.33
L11V	-0.624 ± 0.24
L11T	-0.057 ± 0.13
L11P	-0.578 ± 0.42
L11S	-0.751 ± 0.37
Q18G	-1.01 ± 0.27
Q18R	-0.276 ± 0.13
Q18L	-0.297 ± 0.16

Variant	abundance fitness
Q18K	-0.234 ± 0.26
Q18P	-0.93 ± 0.23
Q18T	-0.347 ± 0.11
Q18A	-0.311 ± 0.069
Q18S	-0.425 ± 0.099
Q18V	0.107 ± 0.083
Q18H	-0.136 ± 0.33
Q18W	0.158 ± 0.21
I9G	-0.762 ± 0.18
I9E	-0.904 ± 0.44
I9S	-1.05 ± 0.32
I9Q	-0.868 ± 0.21
I9R	-1.03 ± 0.23
I9T	-0.701 ± 0.21
I9D	-0.74 ± 0.2
I9P	-0.094 ± 0.43
I9H	-0.89 ± 0.25
I9A	-0.784 ± 0.11
I9N	-0.742 ± 0.25
I9F	-0.791 ± 0.23
I9L	-0.989 ± 0.28
L6V	-0.221 ± 0.18
L6W	-0.152 ± 0.39
L6Y	-0.346 ± 0.29

Variant	abundance fitness
R21A	-0.076 ± 0.056
R21N	0.098 ± 0.072
R21P	-0.357 ± 0.14
R21C	0.096 ± 0.066
R21L	-0.204 ± 0.062
R21V	0.115 ± 0.04
R21Y	-0.227 ± 0.085
R21H	0.164 ± 0.076
R21E	-0.026 ± 0.085
R21D	0.133 ± 0.13
R21F	-0.17 ± 0.11
R21I	0.081 ± 0.094
R21M	-0.073 ± 0.085
R21K	0.011 ± 0.13
R21T	0.009 ± 0.075
R21W	-0.368 ± 0.13
R21S	-0.054 ± 0.055
F38C	-0.675 ± 0.24
F38L	-0.284 ± 0.17
F38M	-0.637 ± 0.48
F38K	0.132 ± 0.38
M13L	-0.089 ± 0.22
M13Q	-0.717 ± 0.34
M13R	-0.703 ± 0.23

Variant	abundance fitness
M13W	-0.606 ± 0.41
M13G	-0.718 ± 0.25
M13D	-0.944 ± 0.44
M13I	-0.149 ± 0.29
M13V	-0.214 ± 0.17
M13T	-0.638 ± 0.34
P8H	-0.641 ± 0.14
P8V	-0.315 ± 0.074
P8G	-0.875 ± 0.13
P8F	-0.506 ± 0.089
P8C	-0.736 ± 0.13
P8R	-0.352 ± 0.037
P8M	-0.355 ± 0.068
P8L	-0.512 ± 0.043
P8Q	-0.072 ± 0.043
P8I	-0.523 ± 0.1
P8N	-0.286 ± 0.14
P8S	-0.405 ± 0.042
P8T	-0.177 ± 0.048
P8E	-0.197 ± 0.089
P8Y	-0.55 ± 0.12
P8A	-0.676 ± 0.074
L20R	-0.501 ± 0.1
L20S	-0.603 ± 0.28

Variant	abundance fitness
L20E	-0.94 ± 0.32
L20G	-0.677 ± 0.18
L20P	-0.622 ± 0.29
L20F	-0.011 ± 0.1
L20C	-0.319 ± 0.067
L20I	-0.013 ± 0.14
L20K	-0.598 ± 0.29
L20N	-0.788 ± 0.45
L20H	-0.525 ± 0.37
L20M	-0.655 ± 0.19
L20A	-0.671 ± 0.23
L20V	-0.01 ± 0.076
T25K	-0.125 ± 0.066
T25M	0.092 ± 0.051
T25P	-0.314 ± 0.084
T25V	-0.048 ± 0.036
T25D	0.021 ± 0.044
T25R	-0.451 ± 0.045
T25S	-0.173 ± 0.061
T25Q	-0.121 ± 0.046
T25H	-0.065 ± 0.13
T25W	-0.228 ± 0.05
T25A	-0.172 ± 0.051
T25Y	-0.326 ± 0.18

Variant	abundance fitness
T25L	-0.134 ± 0.046
T25G	-0.544 ± 0.049
T25C	-0.08 ± 0.063
T25F	0.311 ± 0.21
N29Q	-0.476 ± 0.45
N29G	-0.244 ± 0.087
N29D	-0.212 ± 0.24
N29R	-0.273 ± 0.23
N29V	-0.727 ± 0.21
N29L	-0.939 ± 0.25
N29K	-0.286 ± 0.096
N29F	-0.736 ± 0.28
N29S	-0.136 ± 0.28
A23G	-0.291 ± 0.038
A23D	0.211 ± 0.063
A23W	-0.144 ± 0.039
A23E	0.221 ± 0.076
A23Q	0.09 ± 0.09
A23M	0.048 ± 0.067
A23K	0.102 ± 0.083
A23S	0.089 ± 0.064
A23F	-0.039 ± 0.093
A23V	0.116 ± 0.054
A23Y	-0.147 ± 0.11

Variant	abundance fitness
A23L	-0.387 ± 0.15
A23P	-0.599 ± 0.28
A23I	-0.076 ± 0.17
A23T	0.155 ± 0.056
F24T	-0.746 ± 0.15
F24Q	-1.06 ± 0.24
F24V	-0.331 ± 0.051
F24C	-0.702 ± 0.15
F24G	-0.884 ± 0.092
F24A	-0.974 ± 0.099
F24K	-0.941 ± 0.16
F24W	-0.293 ± 0.063
F24M	-0.71 ± 0.11
F24N	-0.964 ± 0.2
F24I	-0.156 ± 0.15
F24S	-0.822 ± 0.098
F24D	-0.451 ± 0.098
F24E	-0.763 ± 0.15
F24P	-0.866 ± 0.18
F24H	-0.991 ± 0.29
V7F	-0.547 ± 0.17
V7Q	-0.937 ± 0.19
V7W	-1 ± 0.18
V7R	-0.998 ± 0.12

Variant	abundance fitness
V7P	-0.753 ± 0.18
V7G	-0.873 ± 0.1
V7M	-0.646 ± 0.14
V7E	-0.868 ± 0.18
V7A	-0.65 ± 0.066
V7I	-0.049 ± 0.086
V7T	-0.77 ± 0.19
V7K	-0.906 ± 0.17
V7L	-0.322 ± 0.055
V7S	-0.866 ± 0.11
V7D	-0.749 ± 0.23
V7C	-0.293 ± 0.079
E30W	0.023 ± 0.32
E30A	-0.619 ± 0.34
E30G	-0.617 ± 0.32
M33H	-0.293 ± 0.12
M33K	-0.325 ± 0.091
M33Q	-0.191 ± 0.076
M33S	-0.743 ± 0.14
M33F	-0.542 ± 0.26
M33V	-0.248 ± 0.052
M33T	-0.279 ± 0.21
M33P	-0.113 ± 0.15
M33Y	-0.421 ± 0.17

Variant	abundance fitness
M33E	-0.794 ± 0.15
M33L	0.01 ± 0.039
M33A	-0.563 ± 0.091
M33W	-0.488 ± 0.068
M33G	-0.797 ± 0.1
M33I	-0.104 ± 0.12
M33R	-0.418 ± 0.046
M28V	-0.086 ± 0.14
M28T	-0.277 ± 0.24
M28P	-0.5 ± 0.21
M28L	0.087 ± 0.16
E14G	-0.819 ± 0.16
E14Y	-0.633 ± 0.35
E14S	-0.071 ± 0.12
E14H	-0.202 ± 0.18
E14L	-0.299 ± 0.094
E14D	0.026 ± 0.15
E14P	-0.937 ± 0.22
E14W	-0.96 ± 0.25
E14R	-0.733 ± 0.14
E14V	-0.199 ± 0.059
E14K	-0.334 ± 0.45
E14M	-0.065 ± 0.11
N27P	-0.512 ± 0.15

Variant	abundance fitness
N27H	-0.723 ± 0.17
N27A	-0.754 ± 0.17
N27M	-0.988 ± 0.36
N27G	-0.622 ± 0.22
N27D	0.165 ± 0.23
N27Q	-0.685 ± 0.14
N27S	-0.582 ± 0.31
N27W	-0.909 ± 0.25
N27C	-0.923 ± 0.31
N27R	-0.684 ± 0.14
N27E	-0.822 ± 0.45
N27T	-0.552 ± 0.3
N27Y	-0.831 ± 0.28
D16W	-0.822 ± 0.15
D16R	-0.415 ± 0.044
D16K	-0.498 ± 0.081
D16N	-0.312 ± 0.11
D16L	-0.5 ± 0.055
D16G	-0.027 ± 0.04
D16T	-0.801 ± 0.16
D16S	-0.39 ± 0.048
D16A	-0.161 ± 0.035
D16Q	-0.168 ± 0.062
D16V	-1.02 ± 0.14

Variant	abundance fitness
D16Y	-0.546 ± 0.086
D16I	-0.861 ± 0.22
D16F	-0.928 ± 0.31
D16H	-0.247 ± 0.057
D16E	-0.042 ± 0.06
L32V	0.068 ± 0.031
L32G	0.061 ± 0.03
L32H	0.146 ± 0.053
L32D	0.181 ± 0.05
L32S	0.059 ± 0.036
L32P	-0.821 ± 0.21
L32Q	0.099 ± 0.047
L32A	0.056 ± 0.036
L32Y	0.061 ± 0.058
L32T	0.134 ± 0.055
L32E	0.207 ± 0.045
L32M	0.085 ± 0.046
L32C	-0.075 ± 0.075
L32W	-0.113 ± 0.061
L32F	0.09 ± 0.079
L32N	0.207 ± 0.1
L32K	0.176 ± 0.058
